These results are taken from the supplement of paper PMC9170038.

The subject of data set [1] is MS2 coat protein. Nature of the data set: apparent KD of MS2 coat protein, switch ON state; designed switch direction (-1 OFF switch, 1 ON switch): -1; higher = weaker reporter binding. The following applies: FMN input: 0 or 200 uM; Eterna round: R93 (includes R88 designs). The gist of the method: (§1)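 SNAP-549-labelled MS2 coat protein was titrated onto designed RNA switches that had been transcribed on-chip from Illumina sequencing clusters. Amounts doubled from 0.7 or 1.5 nM to 3 µM in 100 mM Tris-HCl pH 7.5, 80 mM KCl, 4 mM MgCl2, with constant ligand or without. Apparent KD is the median per design of normalised cluster binding-curve fits.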

For data set [2], the system named is MS2 coat protein. Nature of the data set: apparent KD of MS2 coat protein, switch OFF state (with FMN for OFF switches, without FMN for ON switches); designed switch direction (-1 OFF switch, 1 ON switch): -1; higher = weaker reporter binding. The following applies: FMN input: 0 or 200 uM; Eterna round: R93 (includes R88 designs). The gist of the method:
as §1

Take “AAAAAGUCAGGAUAUACGUAAGUGCGAAAGCACAAAUGGAAACAUGAGGAUCACCCAUGUAGAAGGGACAAGAA [JL In the Red 02 (Mod)]”: the “apparent KD of MS2 coat protein” value in the data set with MS2 coat protein [1] is 36.7 nM; with MS2 coat protein [2], 23.6 nM.
For “GAAACUAGAGGAUAUACGAACAUGUCAAAAGACGUGAAGGGACAUGAGGAUCACCCAUGUAGAAGGCUAGAAAG [Mat - Exclusion 2 - JL mod - D100]”, the “apparent KD of MS2 coat protein” value was 39.5 nM in the data set on MS2 coat protein [1] and 35.1 nM in the data set on MS2 coat protein [2].
For “AAGAACUAAGGAUAUACAAAAUAAAAGAAAAGAAAGAAAGAACAUGAGGAUCACCCAUGUAGAAGGUAGAAGAA [Khakheperre Senusret II]”, the entries for the “apparent KD of MS2 coat protein” value with MS2 coat protein [1] and in the data set with MS2 coat protein [2] were 19.9 nM and 15.1 nM, respectively.
In the case of “AAAAAACAUGAGGAUCACCCAUGUAAGGAUAUGCAAAAGAAAAGAAAAGAAAGAAGAAGCAGAAGGUACAAGAA [Userkaf]”, the “apparent KD of MS2 coat protein” value came out at 35 nM in the data set on MS2 coat protein [1] and 31.2 nM in the data set with MS2 coat protein [2].
As for “CUCAAGUGAGGAUAUCAGUAGUAAAAAAAUAAAAUUACUACUGAGAAGGCACAUGAGGAUCACCCAUGUGCCAA [EX4 335: Super Stable 35]”, the results for the “apparent KD of MS2 coat protein” value with MS2 coat protein [1] and with MS2 coat protein [2] were 14.7 nM and 15.2 nM, respectively.
On the same counts, the results for “AGUCGGCGAGGAUAUACAUGAGGAUCACCCAUGUGAGAGAAAAAAGUGAGUCAGAAAAGUAGAAGGCGCUGACA [JL Lego Mod 4]” are 63.4 nM and 41.6 nM.
Regarding “AAGAACUGAGGAUAUACUAAAGAAAUGAAAAGAAAGAAAGAACAUGAGGAUCACCCAUGUAGAAGGCAGAAGAA [Ya'ammu Nubwoserre]”, the figures for the “apparent KD of MS2 coat protein” value with MS2 coat protein [1] and in the data set with MS2 coat protein [2] were 29.9 nM and 18 nM, respectively.
The corresponding values for “CUCUAGUUAGGAUAUCCAAGAAAAGAAAAGAAAGAAAAGAAGGAGAAGGAACAUGAGGAUCACCCAUGUAAGAA [EteRNA is fun!]” are 27.8 nM and 29.4 nM.
On the same counts, the results for “GAAAAACAUGAGGAUCACCCAUGUAAGGAUAUGCUAAAAAACGCAAAAAAAGCGAAUAGCAGAAGGUACAAAAG [Mat - Exclusion 1 - Eli mod - D82]” are 22.3 nM and 78.1 nM.
On the same counts, the results for “AGAAAACAUGAGGAUCACCCAUGUGAGGAUAUGCAAAUAUAUACGAAAGAUUAUAAAAGCAGAAGGCACAAAAG [Meechl MS2 Ex1]” are 35.8 nM and 57.7 nM.
Regarding “AGGUUGUCAGGAUAUGCGUGAAGAAUAAAACAAAUAACAACGCAGAAGGGACAUGAGGAUCACCCAUGUAACCA [May 53]”, the “apparent KD of MS2 coat protein” value in the data set on MS2 coat protein [1] was determined as 35.6 nM; with MS2 coat protein [2], 27.2 nM.
On the same counts, the results for “AAAAAGUCAGGAUAUGUGGAAAAAAUAAAAAAAAUAAAAACACAGAAGGGACAUGAGGAUCACCCAUGUAAAAA [Ex 4 May 19]” are 71.7 nM and 47.2 nM.
On the same counts, the results for “AAAAAACAUGAGGAUCACCCAUGUCAGGAUAUGCUAUGGAAAUAAAAAAUAAAACAUAGCAGAAGGGACACCAA [Mat - Exclusion 1 - Eli mod - D48]” are 31 nM and 55 nM.
On the same counts, the results for “AUAGGCCUAGGAUAUACAUGAGGAUCACCCAUGUUAACACUUCAAUCAAGUUAAUAGUGUAGAAGGAGGAAUAA [JR_Exc003_Sub308]” are 29.3 nM and 31.5 nM.
Regarding “GAAACUGGAGGAUAUACGUACAUGUCAAAAGACGUGAAGGGACAUGAGGAUCACCCAUGUAGAAGGCUAGAAAG [Mat - Exclusion 2 - JL mod - D97]”, the figures for the “apparent KD of MS2 coat protein” value in the data set with MS2 coat protein [1] and in the data set on MS2 coat protein [2] were 70.6 nM and 21.9 nM, respectively.
On the same counts, the results for “AAAAAACAUGAGGAUCACCCAUGUAAGGAUAUGCUCGUCAGUGCGAAAGCACAGAUGAGCAGAAGGUACAAAAA [66%, Wbt, 43]” are 24.8 nM and 39 nM.
As to “AAGAAGCAAGGAUAUACUAAAGAAAUGAAAAGAAAUAAAGAACAUGAGGAUCACCCAUGUAGAAGGUGCAAGAA [Webenre]”, the “apparent KD of MS2 coat protein” value in the data set with MS2 coat protein [1] was 50.4 nM; with MS2 coat protein [2] it was 39.3 nM.
On the same counts, the results for “AAAAAACAUGAGGAUCACCCAUGUAAGGAUAUCAGAGAAUUAAAAAAAAAAAAAAAAAUGAGAAGGUACAAAAA [excaliber]” are 31.7 nM and 19 nM.
The corresponding values for “AACAGUACAGGAUAUACAUGAGGAUCACCCAUGUGGGAAAAAAGAUCGAGAGAUCAAUGUAGAAGGGUACUGGA [JL In the Red 03]” are 161 nM and 427 nM.
The corresponding values for “AAUAACCGAGGAUAUACAAAACCUGUGAUCUAGUGGAUUUUACAUGAGGAUCACCCAUGUAGAAGGCGGACAAG [Atdiiste]” are 49.9 nM and 183 nM.
